In series [1] the target is T1, Ec-MscL (mechanosensitive channel of large conductance) (Escherichia coli, UniProt P0A742).
T1 construct: wild type, recombinant, detergent-solubilized channel
As to the kind of experiment: MicroScale Thermophoresis; supported by patch clamp activation at […] DHS and MTS-PEG5000 competition on cysteine mutants. In kind it is binding. For orientation: Microscale thermophoresis detects binding through changes in fluorescence in a small temperature gradient.

Series [2] addresses T2, Ec-MscL (mechanosensitive channel of large conductance) (Escherichia coli, UniProt P0A742, K55T).
T2 construct: recombinant, detergent-solubilized channel
The experiment in a line: MicroScale Thermophoresis, labeled purified protein in DDM (main text prints […]). In kind it is binding.

Series [3] concerns the molecule itself. As to the kind of experiment: non-reducing SDS-PAGE with Western blot (dimer band); purified His-tagged cysteine mutants, 5 ug in 50 mM KPi pH 7.5, 150 mM NaCl, 4 mM DM, 22°C; nonreducing sample buffer with iodoacetamide; blot with Penta.His; samples of the MTS-PEG5000 versus DHS competition experiment, mock lanes included.

T2 sequence (P0A742 whole entry K55T): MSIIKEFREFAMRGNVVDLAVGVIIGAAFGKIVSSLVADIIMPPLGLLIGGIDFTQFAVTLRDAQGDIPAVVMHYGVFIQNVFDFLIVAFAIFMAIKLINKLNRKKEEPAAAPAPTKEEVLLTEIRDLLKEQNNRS
T1 sequence (P0A742 whole entry): as the sequence (P0A742 whole entry K55T) above, with T55K counted along it

As for `CN[C@@H]1[C@H](O[C@H]2[C@H](O[C@H]3[C@H](O)[C@@H](O)[C@H](NC(=N)N)[C@@H](O)[C@@H]3NC(=N)N)O[C@@H](C)[C@]2(O)CO)O[C@@H](CO)[C@H](O)[C@H]1O` [DHS, dihydrostreptomycin], the Kd amounted to 9.81 ± 0.13 mM in series [1] and 0.601 ± 0.0551 mM in series [2].

B1: A114C Ec-MscL (Escherichia coli mechanosensitive channel of large conductance, cysteine mutant) (natural protein, UniProt P0A742 1-136, looked up)
chain: MSIIKEFREFAMRGNVVDLAVGVIIGAAFGKIVSSLVADIIMPPLGLLIGGIDFKQFAVTLRDAQGDIPAVVMHYGVFIQNVFDFLIVAFAIFMAIKLINKLNRKKEEPAAAPCPTKEEVLLTEIRDLLKEQNNRS
notes: MscL, mechanosensitive channel of large conductance, Escherichia coli (Ec-MscL); single cysteine mutant; source: E. coli PB104 (pB10) or PB116 (pET21a), purified (Talon resin, in DM); not shown: His6, C-terminal, kept
Take B1: the binding result in series [3] is on record as “binds”.

B2: T116C Ec-MscL (Escherichia coli mechanosensitive channel of large conductance, cysteine mutant) (natural protein, UniProt P0A742 1-136, looked up)
chain: MSIIKEFREFAMRGNVVDLAVGVIIGAAFGKIVSSLVADIIMPPLGLLIGGIDFKQFAVTLRDAQGDIPAVVMHYGVFIQNVFDFLIVAFAIFMAIKLINKLNRKKEEPAAAPAPCKEEVLLTEIRDLLKEQNNRS
notes: as for B1
With B2, the binding result in series [3] is given as “binds”.

B3: K117C Ec-MscL (Escherichia coli mechanosensitive channel of large conductance, cysteine mutant) (natural protein, UniProt P0A742 1-136, looked up)
chain: MSIIKEFREFAMRGNVVDLAVGVIIGAAFGKIVSSLVADIIMPPLGLLIGGIDFKQFAVTLRDAQGDIPAVVMHYGVFIQNVFDFLIVAFAIFMAIKLINKLNRKKEEPAAAPAPTCEEVLLTEIRDLLKEQNNRS
notes: as for B1
With B3, the binding result in series [3] is “binds”.

As usually defined, the Kd is the free concentration of one partner at which half of the binding sites on the other are occupied at equilibrium, for simple one-to-one binding. Read a low Kd as higher affinity.

Source of the values: paper PMC4900634 (PLoS Biology, 2016).
